Data taken from publication PMC5809404, “Luminescence resonance energy transfer between genetically encoded donor and acceptor for protein-protein interaction studies in the molecular chaperone HSP70/HSP90 complexes” (Scientific Reports, 2018).

What was measured:
Conditions in all cases: both partners purified
[1] = biological target: T1, LBT-TPR2A (TPR2A domain of yeast Sti1 with an N-terminal lanthanide binding tag) (yeast, UniProt P15705 252-379); assay: LRET (luminescence resonance energy transfer); titration: 20 µM LBT-TPR2A-Tb3+ complex with increasing EGFP-C90 (0-15 µM); normalized LRET Em510 nm/Em490 nm; Scatchard plot; three independent experiments
T1 construct: TPR2A domain of Sti1, yeast, aa 252-379; Loaded with equimolar Tb3+ in the assay; also called LBT-TPR2A (Sti1); LBT-TRP2A; source: E. coli Rosetta (DE3) pLysS, purified (Ni-NTA)
T1 sequence (looked up): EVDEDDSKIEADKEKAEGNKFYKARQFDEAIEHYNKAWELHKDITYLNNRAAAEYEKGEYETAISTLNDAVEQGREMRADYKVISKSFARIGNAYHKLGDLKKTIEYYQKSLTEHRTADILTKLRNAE

[2] = biological target: T2, LBT-TPR2A (TPR2A domain of human HOP, wild type, with an N-terminal lanthanide binding tag) (human, UniProt P31948 225-337); assay: LRET (luminescence resonance energy transfer); equimolar mixture in solution of the LBT-tagged protein loaded with Tb3+ and the EGFP or TagRFP fusion protein (5 µM, or 25 µM for TagRFP-C70); 96-well black plates; excitation 280 nm, 100 µs delay, emission spectrum 450-600 nm
T2 construct: TPR2A domain of HOP (STIP1), human, aa 225-337; Cloned into the XhoI site of pST96/LBT-MCS; Loaded with equimolar Tb3+ in the assay; also called LBT-TPR2A WT; TPR2A WT; source: E. coli Rosetta (DE3) pLysS, purified (Ni-NTA)

[3] = biological target: T3, LBT-TPR2A K229A (TPR2A domain of human HOP, point mutant K229A) (human, UniProt P31948 225-337, K229A); assay: as above
T3 construct: TPR2A domain of HOP (STIP1), human, aa 225-337, with K229A; Loaded with equimolar Tb3+ in the assay; also called TPR2A mutant K229A; source: E. coli Rosetta (DE3) pLysS, purified (Ni-NTA)
T3 sequence (P31948 225-337 K229A): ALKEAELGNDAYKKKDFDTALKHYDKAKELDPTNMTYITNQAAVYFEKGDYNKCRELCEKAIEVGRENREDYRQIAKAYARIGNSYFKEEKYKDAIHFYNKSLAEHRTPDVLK

T2 sequence (P31948 225-337): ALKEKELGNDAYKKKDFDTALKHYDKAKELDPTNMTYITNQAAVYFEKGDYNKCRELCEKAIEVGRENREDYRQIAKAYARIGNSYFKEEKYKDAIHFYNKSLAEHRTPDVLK

B1: EGFP-C90 (last 90 amino acids of human HSP90α fused to the C-terminus of EGFP) (domain or fragment)
chain: not shown
notes: HSP90α, human, the C-terminal 90 amino acids, ending with MEEVD; EGFP in the XhoI site and C90 in the BamHI site of pET15b; source: E. coli Rosetta (DE3) pLysS, purified (Ni-NTA); not shown: EGFP, N-terminal, kept
In the case of B1, the Kd [1] is reported as 4.2 µM, the binding result [2] is reported as “binds” and the binding result [3] is reported as “binds”.
